From PMC11014909 (2024) come the findings set out here.

B1: GST-Pif1N(56–77) [S. cerevisiae] / Rfa1N(1–132)-4myc [S. cerevisiae] (parent complex)
chain 1: KHPSILSKEDLDLLSDSDDWEE
chain 2: MSSVQLSRGDFHSIFTNKQRYDNPTGGVYQVYNTRKSDGANSNRKNLIMISDGIYHMKALLRNQAASKFQSMELQRGDIIRVIIAEPAIVRERKKYVLLVDDFELVQSRADMVNQTSTFLDNYFSEHPNETL

Variants of B1 are the subject of the test. Description: GST pull-down followed by myc-specific western blotting, quantified; n = 3 biological replicates; parent: 0.53; read off a plot.
Turning to chain 1 L11A, chain 1 D12A, chain 1 L13A, chain 1 L14A, the response is ~0.077 % of input.
